Laboratory results from US20020058247A1 (TRIPEP, published 2002).

Experiments:
[1] = target: T1, Full length recombinant HBcAg (rHBcAg) encompassing residues 1-183 (hepatitis B virus, UniProt P03146 1-183); test: EIA, support-bound peptide, HBcAg 2 ug/well
T1 construct: range 1-183; also called hepatitis B virus core antigen

[2] = target: T1, Full length recombinant HBcAg (rHBcAg) …; test: EIA, support-bound peptide, HBcAg 0.2 ug/well
[3] = target: T2, non-structural 3 protein (NS3) of the hepatitis C virus (HCV) (hepatitis C virus); test: EIA, support-bound peptide, HCV NS3 control
T2 construct: Control antigen; also called HCV NS3

T1 sequence (P03146 whole entry, the tested form may be a part): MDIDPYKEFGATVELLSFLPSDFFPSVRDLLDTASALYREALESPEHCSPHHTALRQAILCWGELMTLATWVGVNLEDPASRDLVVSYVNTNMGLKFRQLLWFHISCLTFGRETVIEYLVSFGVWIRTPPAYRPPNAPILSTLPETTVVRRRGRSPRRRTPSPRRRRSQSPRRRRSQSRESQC

| Binder | OD at 405 nm [1] [OD] | OD at 405 nm [2] [OD] | OD at 405 nm [3] [OD] |
| --- | --- | --- | --- |
| QKFKGKATLTVDKSSSTAYM (also called Peptide # 30) [QKFKGKATLTVDKSSSTAYM (SEQ. ID. No. 33)] | 1.11 | 0.207 | 0.035 |
| IQLQQSGAELVKPGASVKIS (also called Peptide # 24) [IQLQQSGAELVKPGASVKIS (SEQ. ID. No. 27)] | 0.369 | 0.123 | 0.021 |
| LVTVSAAKTTPPSVYPLVPV (also called Peptide # 35) [LVTVSAAKTTPPSVYPLVPV (SEQ. ID. No. 38)] | – | – | 0.032 |
| NPYYGSTSYNQKFKGKATLT (also called Peptide # 29) [NPYYGSTSYNQKFKGKATLT (SEQ. ID. No. 32)] | 0.783 | 0.213 | 0.021 |
| TFGGGTKLEIKRADAAPAV (also called Peptide # 22) [TFGGGTKLEIKRADAAPAV (SEQ. ID. No. 25)] | 0.273 | 0.084 | 0.024 |
| VDKSSSTAYMQLNSLTSEDS (also called Peptide # 31) [VDKSSSTAYMQLNSLTSEDS (SEQ. ID. No. 34)] | 0.338 | 0.114 | 0.106 |
| CKASGYIFTSYDIDWVRQTP (also called Peptide # 3) [CKASGYIFTSYDIDWVRQTP (SEQ. ID. No. 6)] | – | – | 0.032 |
| KRADAAPAVSIFPPSSKLG (also called Peptide # 23) [KRADAAPAVSIFPPSSKLG (SEQ. ID. No. 26)] | 0.465 | 0.162 | 0.021 |
| GVPARFSGSGSGTDFTLNIH [GVPARFSGSGSGTDFTLNIH (SEQ. ID. No. 21)] | 0.409 | 0.141 | 0.027 |
| AVYFCARGDYDYYRRYFDLW (also called Peptide # 10) [AVYFCARGDYDYYRRYFDLW (SEQ. ID. No. 13)] | 0.981 | 0.304 | 0.038 |
| ELTRLTSEDSAVYFCARGDY (also called Peptide # 9) [ELTRLTSEDSAVYFCARGDY (SEQ. ID. No. 12)] | – | – | 0.073 |
| YDIDWVRQTPEQGLEWIGWI (also called Peptide # 4) [YDIDWVRQTPEQGLEWIGWI (SEQ. ID. No. 7)] | – | – | 0.089 |
| VDKSSSTAYMELTRLTSEDS (also called Peptide # 8) [VDKSSSTAYMELTRLTSEDS (SEQ. ID. No. 11)] | 0.363 | 0.134 | 0.041 |
| YCQHSWEIPYTFGGGTKLEI (also called Peptide # 21) [YCQHSWEIPYTFGGGTKLEI (SEQ. ID. No. 24)] | 0.498 | 0.173 | 0.052 |
| QLNSLTSEDSAVYYCARGKG (also called Peptide # 32) [QLNSLTSEDSAVYYCARGKG (SEQ. ID. No. 35)] | – | – | 0.035 |
| SGTDFTLNIHPVEEEDTATY [SGTDFTLNIHPVEEEDTATY (SEQ. ID. No. 22)] | 0.649 | 0.205 | 0.206 |
| DYYRRYFDLWGQGTTVTVS (also called Peptide # 11) [DYYRRYFDLWGQGTTVTVS (SEQ. ID. No. 14)] | 0.356 | 0.133 | 0.022 |
| TSSYSYMHWYQQKPGQPPKL [TSSYSYMHWYQQKPGQPPKL (SEQ. ID. No. 18)] | 1.44 | 0.574 | 0.028 |
| PVEEEDTATYYCQHSWEIPY (also called Peptide # 20) [PVEEEDTATYYCQHSWEIPY (SEQ. ID. No. 23)] | 0.625 | 0.207 | 0.124 |
| LIKYASNLESGVPARFSGSG [LIKYASNLESGVPARFSGSG (SEQ. ID. No. 20)] | 0.357 | 0.112 | 0.02 |
| GKSLEWIGNINPYYGSTSYN (also called Peptide # 28) [GKSLEWIGNINPYYGSTSYN (SEQ. ID. No. 31)] | 0.289 | 0.114 | 0.028 |
